B1: TRL813 (antibody, V domains shown)
VH: QVQLVESGGGLVQPGGSLRLSCAASGFIFGDFAIHWVRQASGKGLEWVARIRSGLNRFETAYAASVEGRLTISRDDSKSMAYLQMNNVKAEDTAVYLCTYLVGAVGFQHWGQGTLVTVSS
VL: DIVMTQSPSTLSASVGDRVTITCRASQTIYRWLAWYQQKPGKAPKVLIYKASTLESGVPSRFSGSGSGTEFTLAISSLQPDDFATYYCQQYNSFPYRFGQGTKVEIKR
B2: TRL847 (antibody, V domains shown)
VH: QVQLVESGGGLVQPGGSLRLSCVASGFTFSRFSMNWVRQAPGMGLEWVSYISDTGRTIYYADSVKGRFTISRDNDKNTLYLQMKSLRDEDSAFYYCARDPDTPFVRAFDSWGQGVLVTVSS
VL: DIVMTQSPSFLSASVGDRVTITCRTSQVISSYLAWYQQRPGKAPKLLIYAASTLQSGVPSRFSGSGSGTRFSLTISNLQPEDFATYFCQQLTTYPPITFGQGTRLEIKR
B3: TRL837 (antibody, V domains shown)
VH: QVQLVQSGAEVKKPGSSVTVSCKTSGHTFISYAISWLRQAPGQGLEWMGGIVPIFGTVNYTQKFQGRLTITADESTSTAYMDLSRLTFEDTAIYFCAREAGYHSSFSGVYFDYWGQGTLLTVSS
VL: DIVMTQSPGTLSLSPGERATLYCRASQSVRSGYLAWYQHKPGQAPLLLFYDASGRATGIPDRFSGSGSGTDFTLTISRLEPEDFAVYYCLQYGSSPRTFGQGTKVEIKR
B4: TRL832 (antibody, V domains shown)
VH: QVQLVESGPGLMKPSETLSLTCTVSGGSVSNYYWSWIRQPPGKGLEWIGYVFYSGSSNYNPSLNNPSLKSRVTISIDTSNNQFSLKLSSVTAADTAVYYCARGRVNSGYDWGPNFDSWGQGALVTVSS
VL: DIVLTQAPSVSVSPGQTASITCSGDRLGEKFASWYQQKPGQSPVLVIYEDSKRPSGIPDRFSGSNSGNTATLTISGTQIMDEGDFFCQAWDSSTVVFGGGTKLTVLG
B5: TRL053 (antibody, V domains shown)
VH: QVQLVQSGAEVRKPGSSVKVSCKVSGGIIRKYAINWVRQAPGQGLEWMGGIIAIFNTANYAQKFQGRVTITADESTSTVYMELSSLRSEDTALYYCARGMNYYSDYFDYWGQGSLVTVSP
VL: EIVLTQSPGTLSLSPGERATLSCRASQSVRSNNLAWYQHKPGQAPRLLIFGASSRATGIPDRFSGSGSGTDFTLTISRLEPEDFAVYYCQQYGSSPALTFGGGTKVEIKR
B6: TRL784 (antibody, V domains shown)
VH: QVQLVQSGPELKKPGSSVKLSCMATGGTFINYAFSWVRQAPGQGLEWLGGIIPVYGTSNHVEKLQGRVTITADASTNTAYMELSGLRFDDTAVYFCAASTATSGTYYAMRPFDFWGQGTLVSVSS
VL: DIELTQDPSVSVAPGQTARIPCVRFNMGPTSVHWYQQKPGQAPVLVVYDDSDRPSGIPERFSGSNSGDSATLTISRVEAGDEADYYCQVWDMSSDRRVFGGGTTLTVLG
B7: TRL833 (antibody, V domains shown)
VH: QVQLLESGPGLVKPSQTLLLTCTVSGASISTGGNYWSWIRQHPGKDLEWIGYIFYSGTTKYNPSVDNPSLKSRVTMSVDTSENQFSLKLSSVTAADTAVYFCARGSPNSGYDWGPHFDYWGQGTLVTVSS
VL: DIELTQSPSVSVSPGQTASITCSGDKLGDKFVCWYQQKAGQSPIVVIYQDDKRPSGIPERFSGSNSGNTATLTISGTQAMDEADYFCQAWDSTTVVFGGGTKLTVLG
B8: TRL856 (antibody, V domains shown)
VH: QVQLVESGGGLVQPGGSLRLSCAASGFTFSDYWMVWVRQAPGKGLVWVSRISSDGSTTSYADSVKGPFTISRDNAKNTLYLQMNSLRAEDTAVYYCARVATPYYYESGFDYWGQGALVTVSS
VL: DIVLTQSPSVSVAPGQTARITCGGNDIGSKSVHWYQQKPGQAPVLVVFDDRDRPSGIPERFSGSNSGNTATLTISRVEAGDEADYYCQVWDITSDLVVFGGGTKLTVVG
B9: TRL823 (antibody, V domains shown)
VH: QVQLVESGGGVVQPGGSLRLSCAASGFNFDEYVMYWVRQSPGKGLEWVSLIGADGRGTYNSDSVKGRFTISRDNRKNSLYLQMNSLRSDDTALYYCAKVERSFYDGSGYGDALEIWGQGTMVTVSS
VL: DIVMTQSPSSLSASVGDRVSITCRASQTITRFLNWYQQKPGKGPKLLIYAASTVHRGVPSRFSGSGSGTDFTLTISSLQPEDFATYYCQQSYSAPFTFGPGTTVDIRR
B10: TRL854 (antibody, V domains shown)
VH: QVQLVESGAEVKKPGASVRVSCKGSGYTFTAYHMHWVRQAPGQGFEWVGWINPNSGATYYTSTFEGRVTMTRDTSITTAYMELSSLRSDDTAVYYCATDIVVERDASLGGFNSYGMDVWGQGTTVTVSS
VL: DIEMTQSPLSLPVTPGEPASISCRSSQSLLHSNGYNHLAWYLQKPGRSPHLLIYLASTRASGVPDRFSGSGSGTDFTLKISRVEAEDVGIYYCMQSLQTSITFGQGTRLEIKR
B11: TRL579 (antibody, V domains shown)
VH: QVQLVQSGAEVKKPGASVKVSCKTSGYTFTAYTIHWVRQAPGQRLEWMGWINAGNGHTKYSQRFKGRVTITRDTSARTTYMELRSLTSEDTALYFCARGPETYYYDKTNWLNSHPDEYFQHWGHGTQVTVSS
VL: DIQMTQSPSTLSASVGDRVTITCRASQTINNYLAWYQQKPGKAPKLLIYKASSLESGVPSRFSGSGSGTEFTLTISSLQPDDFATYYCQEYNNDSPLTFGGGTKVEIKR
B12: TRL845 (antibody, V domains shown)
VH: QVQLVQSGGDLVQPGGSLRLSCAASGFTFSRYSMNWVRQAPGMGLEWVAYISDTSRTIYYADSVKGRFTISRDNAKNSLYLQMKSLRDEDTAVYYCARDPDTPFVRAFDSWGQGTLVTVSS
VL: DIVLTQSPSFLSASVGDRVTITCRASQLISSYFAWYQQKPGKPPKLLIYAASTLQSGVPSRFSGSGSGTQFSLTISSLQPEDFATYYCQQLNSYPPITFGQGTRLEIKR
B13: TRL835 (antibody, V domains shown)
VH: QVQLVQSGAEVRKPGESLRISCRGSGYNFPKYWIGWVRQMPGKGLEWMGMIYPGDSDVRYNPSFQGQVTISADESINTAYLQWSSLRTSDTARYYCARHLGQQLVSNTYYYYGMDVWGQGTTVTVSS
VL: DIVLTQSPLSLPVTPGEPASISCRSSQSLLDSNGYNYLDWYLQKPGQSPQLLIYLASYRAPGVPDRFSGSGSGTDFTLKISRVEAEDVGLYYCMQALQTPPMYTFGQGTKLEIKR

Assays:
[1] = biological target: recombinant HA of influenza A H1 A/California/09 (influenza A virus H1 A/California/09); experiment: recombinant HA ELISA (AttoPhos fluorescence, mean of triplicates)
[2] = biological target: recombinant HA of influenza A H3 A/Sydney/97 (influenza A virus H3 A/Sydney/97); experiment: as above
[3] = biological target: hemagglutinin (HA) of influenza B virus B/Florida (Yamagata lineage) (influenza B virus B/Florida/06 (Yamagata clade)); experiment: ForteBio Octet; antigen on the sensor, varying antibody concentrations
[4] = biological target: hemagglutinin (HA) of influenza B virus B/Malaysia (Victoria lineage) (influenza B virus B/Malaysia/04 (Victoria clade)); experiment: as above
[5] = biological target: H7 Netherlands/219/03 HA monomer (influenza A virus H7 Netherlands/219/03); experiment: kinetic binding to HA monomer (instrument not stated)
[6] = biological target: H9 HongKong/1073/99 HA monomer (influenza A virus H9 HongKong/1073/99); experiment: as above
[7] = biological target: H5 Vietnam/1194/2004 HA monomer (influenza A virus H5 Vietnam/1194/2004); experiment: as above
[8] = biological target: H5 Vietnam/1203/2004 HA trimer (influenza A virus H5 Vietnam/1203/2004); experiment: kinetic binding to HA trimer (instrument not stated)
[9] = biological target: H3 Perth/16/2009 HA monomer (influenza A virus H3 Perth/16/2009); experiment: kinetic binding to HA monomer (instrument not stated)
[10] = biological target: H7 Netherlands/219/03 HA trimer (influenza A virus H7 Netherlands/219/03); experiment: kinetic binding to HA trimer (instrument not stated)

| Binder | fold reactivity over background (fold over background) [1] | fold reactivity over background (fold over background) [2] | Kd [3] [nM] | Kd [4] [nM] | further results |
| --- | --- | --- | --- | --- | --- |
| B1 | 1.6 | 1.1 | – | – | – |
| B2 | 1.1 | 1 | – | – | – |
| B3 | – | – | 0.3 | 1 | – |
| B4 | 1.1 | 1.1 | – | – | – |
| B5 | 25.6 | 1 | – | – | Kd [5]: 1.2 nM; koff [5]: 6.7e-05 s⁻¹; kon [5]: 55000 M⁻¹ s⁻¹; Kd [6]: 0.2 nM; koff [6]: 1.6e-05 s⁻¹; kon [6]: 98000 M⁻¹ s⁻¹; Kd [7]: 0.5 nM; koff [7]: 1.9e-05 s⁻¹; kon [7]: 38000 M⁻¹ s⁻¹; Kd [8]: 0.5 nM; koff [8]: 4.5e-05 s⁻¹; kon [8]: 92000 M⁻¹ s⁻¹ |
| B6 | – | – | 0.7 | 7 | – |
| B7 | – | – | 2.9 | 0.2 | – |
| B8 | 1.2 | 1.3 | – | – | – |
| B9 | – | – | 2 | 0.3 | – |
| B10 | 1.2 | 1.3 | – | – | – |
| B11 | 1 | 25.6 | – | – | Kd [9]: 3.9 nM; koff [9]: 0.00064 s⁻¹; kon [9]: 170000 M⁻¹ s⁻¹; Kd [10]: 0.4 nM; koff [10]: 4e-05 s⁻¹; kon [10]: 100000 M⁻¹ s⁻¹ |
| B12 | 1.4 | 1.1 | – | – | – |
| B13 | – | – | 0.6 | 2.3 | – |
